Results on 2 molecules are retold here after patent US12492490 (University of California, dated 2025).

The target in the assay is T1, human ephrin type-A receptor 2 (EphA2) (human, UniProt P29317 24-976).
T1 construct: whole, on cells; also called NP_004422
The experiment in a line: not described.

T1 sequence (P29317 24-976): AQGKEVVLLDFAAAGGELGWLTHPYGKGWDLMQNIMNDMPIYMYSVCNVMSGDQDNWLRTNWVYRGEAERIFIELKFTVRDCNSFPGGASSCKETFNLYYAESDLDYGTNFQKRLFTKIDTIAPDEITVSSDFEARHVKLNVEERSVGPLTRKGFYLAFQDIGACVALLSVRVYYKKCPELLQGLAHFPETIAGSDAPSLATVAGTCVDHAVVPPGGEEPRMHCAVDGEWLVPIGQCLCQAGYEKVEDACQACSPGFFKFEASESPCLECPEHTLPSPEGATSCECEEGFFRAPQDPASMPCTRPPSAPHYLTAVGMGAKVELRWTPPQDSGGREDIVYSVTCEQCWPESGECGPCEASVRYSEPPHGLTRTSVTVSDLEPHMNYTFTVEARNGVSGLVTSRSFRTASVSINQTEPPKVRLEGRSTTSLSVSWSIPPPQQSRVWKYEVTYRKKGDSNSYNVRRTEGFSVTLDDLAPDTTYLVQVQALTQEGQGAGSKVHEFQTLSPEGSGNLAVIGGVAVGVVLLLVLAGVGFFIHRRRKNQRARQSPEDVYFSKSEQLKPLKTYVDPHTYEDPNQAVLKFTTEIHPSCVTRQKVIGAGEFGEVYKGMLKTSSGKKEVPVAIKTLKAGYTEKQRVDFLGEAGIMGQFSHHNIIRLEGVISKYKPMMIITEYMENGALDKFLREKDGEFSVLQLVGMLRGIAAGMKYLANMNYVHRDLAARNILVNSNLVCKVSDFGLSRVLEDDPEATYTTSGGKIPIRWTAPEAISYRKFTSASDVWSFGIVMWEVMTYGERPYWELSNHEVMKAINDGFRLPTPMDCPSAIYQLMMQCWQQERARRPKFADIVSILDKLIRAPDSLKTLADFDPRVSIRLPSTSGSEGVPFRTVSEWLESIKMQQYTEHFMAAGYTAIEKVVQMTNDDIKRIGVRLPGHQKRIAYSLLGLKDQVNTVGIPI

B1: HCA-M1 (antibody, V domains shown)
VH: QVQLVESGGGVVQPGRSLRLSCAASGFTFSSYAMHWVRQAPGKGLEWVAVISYDGSNKYYADSVKGRFTISRDNSKNTLYLQMNSLRAEDTAVYYCARAPAYSYGPFDYWGQGTLVTVSS
VL: SSELTQDPAVSVALGQTVRITCQGDSLRSYYASWYQQKPGQAPVLVIYGKNNRPSGIPDRFSGSSSGNTASLTITGAQAEDEADYYCHSRDSSGTHLRVFGGGTKVTVL
notes: also called IgG HCA-M1
Take B1: the binding result is “no binding”.

B2: HCA-S1 (antibody, V domains shown)
VH: QVQLQESGGGLVQPGGSLRLSCAASGFTFSSYAMHWVRQAPGKGLEWVAVISYDGSNKYYADSVKGRFTISRDNSKNTLYLQMNSLRAEDTAVYYCARFSSGWYYFDYWGQGTLVTVSS
VL: DIQMTQSPSFLSASVGDRITITCRASHDISSYFAWYQQKPGKAPKPLIYAASTLQSGVPSRFSGSGSGTEFTLTISSLQPEDFATYYCQQLGSYPLTFGGGTKLEIK
notes: also called IgG HCA-S1
Turning to B2, the binding result is recorded as “no binding”.
